From the supplement of paper PMC9732359
± gives the uncertainty stated by the source.

Assay: protein stability index of a GFP-peptide fusion (yeast GPS) (PSI 1-4); higher = more stable; sorted into four equal gates, so the index is relative within each strain
Method in brief: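 Mid-log yeast cultures in leucine-free medium, carrying a pooled plasmid library, were sorted into four equal gates by their GFP/Cherry fluorescence ratio. Each plasmid expressed Cherry along with GFP fused upstream of a tiled 17-residue yeast protein peptide. Plasmids recovered from each gate were PCR-amplified and Illumina-sequenced, with reads assigned to strains by barcodes. The protein stability index was obtained by summing each gate's read frequency weighted by its gate number.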

Row | Sequence | protein stability index (doa10∆) | protein stability index (pdr5∆) | protein stability index (san1∆) | protein stability index (ubr1∆)
1 | GQSSSIQSSLMTNLTYF [YCS4] | 2.86 ± 0.095 | 2.74 ± 0.071 | 2.56 ± 0.086 | 2.95 ± 0.065
2 | PNVCNMKQYRDFLGVAS [PRP28] | 1.99 ± 0.14 | 2.26 ± 0.091 | 2.37 ± 0.077 | 1.99 ± 0.072
3 | DKLLDFIRYDVKTPKKT [CSN12] | 2.73 ± 0.046 | 2.64 ± 0.045 | 2.2 ± 0.052 | 2.99 ± 0.053
4 | TNQKDTNDHVDKRTKID [ISW2] | 2.77 ± 0.069 | 3.05 ± 0.07 | 2.81 ± 0.059 | 2.72 ± 0.044
5 | AFVKQKNDSLEKTINDL [YIL149C/MLP2] | 3.1 ± 0.11 | 3.19 ± 0.11 | 3.02 ± 0.14 | 3.11 ± 0.12
6 | NYTGWKAISVGANTSAA [PRE9] | 1.23 ± 0.079 | 1.36 ± 0.076 | 1.24 ± 0.2 | 1.17 ± 0.062
7 | LQVGDVVSTTAVIESVV [FAS1] | 2.33 ± 0.056 | 1.59 ± 0.056 | 2.04 ± 0.091 | 2.01 ± 0.049
8 | RKTLKEKAIPKDQRATT [RPO26] | 3.06 ± 0.057 | 3.18 ± 0.064 | 3.04 ± 0.049 | 3.31 ± 0.07
9 | MVMREETIKSLEDPYKY [CSN9] | 1.62 ± 0.08 | 1.66 ± 0.078 | 1.25 ± 0.2 | 1.73 ± 0.054
10 | NVDNQTSDLVKSLGLKL [RPS17A] | 3.2 ± 0.087 | 3.29 ± 0.084 | 3.35 ± 0.066 | 3.06 ± 0.075
11 | AGVEDVYTQSNGKTRTL [RPS2] | 2.76 ± 0.11 | 3.21 ± 0.084 | 3.28 ± 0.066 | 3.48 ± 0.057
12 | LSILNEIKKVTQIVAKF [SIN4] | 3.13 ± 0.16 | 2.39 ± 0.14 | 2.37 ± 0.11 | 2.87 ± 0.091
13 | RTDATFIRVIGSELVQK [RPT1] | 3.2 ± 0.082 | 3.19 ± 0.057 | 3.04 ± 0.072 | 2.98 ± 0.051
14 | YQDIEGGFEDVEEYTWS [RPB2] | 3.44 ± 0.14 | 3.29 ± 0.11 | 3.49 ± 0.066 | 3.44 ± 0.099
15 | LNTFGSKICLSHFSLDQ [ITC1] | 2.48 ± 0.06 | 2.18 ± 0.042 | 2.09 ± 0.095 | 2.33 ± 0.039
16 | LSDIETAVNGIDTDLFG [YGL172W/NUP49] | 3.11 ± 0.079 | 3.16 ± 0.086 | 3.2 ± 0.062 | 3.19 ± 0.055
17 | HGMDFTTDKLRSMVRKW [RPS1A] | 2.42 ± 0.1 | 2.55 ± 0.1 | 2.48 ± 0.19 | 2.9 ± 0.064
18 | TPGELVTDDPIWMRGHG [RRP4] | 2.65 ± 0.19 | 2.9 ± 0.13 | – | 3.14 ± 0.15
19 | DAFNMLSLTTVPCDRIE [SNF6] | 2.18 ± 0.05 | 2.57 ± 0.064 | 2.43 ± 0.091 | 2.4 ± 0.069
20 | VNGFLNLGYCNDKLIVD [RPN1] | 3.32 ± 0.098 | 2.78 ± 0.067 | 2.89 ± 0.052 | 2.49 ± 0.079
21 | QWSATWIAMRREKRDRT [PRP8] | 2.23 ± 0.089 | 2.64 ± 0.081 | 2.76 ± 0.18 | 2.73 ± 0.095
22 | NLKEYNKFMSIFLKRKD [SRB8] | 1.64 ± 0.06 | 2.22 ± 0.12 | 2.83 ± 0.078 | 1.88 ± 0.096
23 | QETCDKLRARLVEYGFD [SMC2] | 2.17 ± 0.14 | 2.52 ± 0.093 | 1.96 ± 0.089 | 1.57 ± 0.034
24 | SNIITKSLVQYIELLPN [DIS3] | 2.64 ± 0.072 | 2.08 ± 0.065 | 2.22 ± 0.072 | 2.38 ± 0.05
25 | ATFSVSQASSDLGETFR [CSL4] | 3.04 ± 0.086 | 2.64 ± 0.064 | 3.23 ± 0.065 | 2.57 ± 0.041
26 | AFRTLRLARSEKKFRGI [RPL13A] | 3.4 ± 0.24 | 3.49 ± 0.15 | – | 3.3 ± 0.084

Row | Sequence | protein stability index (doa10∆) | protein stability index (pdr5∆) | protein stability index (san1∆) | protein stability index (ubr1∆)
27 | DSSAHFKGALTIKILPE [YMR129W/POM152] | 2.67 ± 0.076 | 2.62 ± 0.064 | 2.37 ± 0.058 | 2.49 ± 0.042
28 | DLAMANSLRRVMIAEIP [RPB3] | 1.23 ± 0.061 | 1.36 ± 0.051 | 1.09 ± 0.18 | 1.44 ± 0.068
29 | LESKMSEVGDAFIFGLQ [SMC3] | 3.29 ± 0.061 | 3.28 ± 0.06 | 3.31 ± 0.041 | 3.34 ± 0.052
30 | MGPLSNIAQMIPGMSNM [SRP54] | 2.49 ± 0.049 | 2.75 ± 0.045 | 2.58 ± 0.048 | 2.69 ± 0.04
31 | LIEKLQGFSKDTFELIK [YDL116W/NUP84] | 3.21 ± 0.12 | 3.22 ± 0.093 | 3.29 ± 0.064 | 3.08 ± 0.07
32 | SKTGIIAYSDSQSSNAN [SIN4] | 2.63 ± 0.043 | 2.6 ± 0.043 | 2.68 ± 0.044 | 2.53 ± 0.058
33 | TRSWRPPQAGDRSLADD [RPB8] | 3.1 ± 0.11 | 3.09 ± 0.16 | 3.32 ± 0.13 | 3.21 ± 0.11
34 | GILGNKAQAKMDKRAKN [RPL8A] | 3.59 ± 0.12 | 3.51 ± 0.14 | 3.41 ± 0.057 | 3.63 ± 0.076
35 | RRREQTTYSVDDYYKEI [ISW2] | 2 ± 0.044 | 2.55 ± 0.035 | 1.91 ± 0.071 | 2.87 ± 0.044
36 | LFIGLFTRPLFVLLEIE [YCS4] | 1.82 ± 0.092 | 1.98 ± 0.083 | 2.11 ± 0.15 | 1.61 ± 0.093
37 | GKHSIGLIWYLLAREVL [RPS0A] | 1.59 ± 0.073 | 1.87 ± 0.064 | 1.65 ± 0.1 | 2.06 ± 0.054
38 | LEQREQNENLPSDKSDS [SSN2] | 3.16 ± 0.07 | 3.09 ± 0.071 | 3.04 ± 0.057 | 3.12 ± 0.056
39 | FKATIQILQGICKNCSA [RPO31] | 1.69 ± 0.044 | 1.77 ± 0.038 | 1.76 ± 0.061 | 1.79 ± 0.046
40 | LRDDTLPKAWISLAVEG [COR1] | 2.55 ± 0.059 | 1.9 ± 0.08 | 1.78 ± 0.12 | 1.44 ± 0.037
41 | RKDKDAKFRLILIESRI [RPS13] | 1.52 ± 0.094 | 1.82 ± 0.12 | 1.9 ± 0.11 | 2.57 ± 0.11
42 | YFFQLQIRSADEPMTTF [RPC11] | 2.77 ± 0.063 | 2.91 ± 0.068 | 3.06 ± 0.058 | 3.26 ± 0.071
43 | TKFLAKNGVIPEESKGS [SWP82] | 3.19 ± 0.096 | 3.16 ± 0.11 | 2.98 ± 0.15 | 3.45 ± 0.13
44 | KQANNFLWPFKLSNPSG [RPL7A] | 2.69 ± 0.13 | 3.02 ± 0.12 | 3.09 ± 0.1 | 2.74 ± 0.11
45 | PYLVANVVEVMDMNEIE [RPT5] | 2.86 ± 0.093 | 2.19 ± 0.063 | 1.91 ± 0.077 | 2.32 ± 0.069
46 | YSRISKLKQLLDESSEQ [YIL149C/MLP2] | 2.25 ± 0.077 | 2.67 ± 0.088 | 1.73 ± 0.14 | 2.4 ± 0.053
47 | MLTIARLGFFYNDQLYV [RPN7] | 2.13 ± 0.093 | 1.66 ± 0.19 | 1.47 ± 0.29 | 2.2 ± 0.19
48 | DLQLLYVESDEDDTQIV [IRR1] | 3.32 ± 0.17 | 3.21 ± 0.14 | 3.07 ± 0.084 | 3.16 ± 0.12
49 | TEVRAEDEAALAKLVST [RPL8A] | 2.9 ± 0.062 | 2.93 ± 0.06 | 2.59 ± 0.055 | 2.74 ± 0.048
50 | GAKPAGSTGGLGASFGQ [YGL172W/NUP49] | 3.38 ± 0.14 | 3.41 ± 0.24 | 3.22 ± 0.11 | 3.54 ± 0.071
51 | MKLNISYPVNGSQKTFE [RPS6A] | 2.65 ± 0.17 | 2.77 ± 0.12 | 2.79 ± 0.12 | 2.94 ± 0.13
52 | MQKQHEMKTQAAELQEK [SNF6] | 1.79 ± 0.14 | 3 ± 0.17 | 3.05 ± 0.055 | 2.54 ± 0.063
